Target: T1, His-SPOC domain (aa 782–977 of Rbm15) (human, UniProt Q96T37 782-977)
T1 construct: cloned in the pBAD/His vector; also called His-tagged Rbm15 SPOC domain; source: E. coli, purified (Ni-NTA agarose), dialyzed against PBS
T1 sequence (looked up): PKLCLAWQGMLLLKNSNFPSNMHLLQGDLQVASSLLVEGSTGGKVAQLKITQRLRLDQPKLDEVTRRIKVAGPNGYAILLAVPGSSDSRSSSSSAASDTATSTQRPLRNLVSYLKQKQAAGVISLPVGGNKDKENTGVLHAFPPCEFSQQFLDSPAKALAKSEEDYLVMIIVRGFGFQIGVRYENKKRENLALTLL
Assay: pull-down; GST pull-down of purified proteins on glutathione-agarose; 20 mM Tris-HCl pH 8.0, 150 mM NaCl, 2 mM EDTA, 0.2% NP-40, 0.5% deoxycholate; 2 h, then beads 1 h; Western blotting and Coomassie staining
Settings: both partners purified

B1: GST-LSD (aa 542–628 of Setd1b) (domain or fragment, human, UniProt Q9UPS6 542-628, looked up)
chain: PLAPFGTNSQPGFRGPTPPSSRPSSTGLEDISPTPLPDSDEDEELDLGLGPRPPPEPGPPDPAGLLSQTAEVALDLVGDRTPTSEKM
notes: human Setd1b LSD domain, residues 542-628; cloned in the pGEX 4T vector; also called GST-Setd1b LSD domain; source: E. coli, purified
- binding result: binds
